Reference: article PMC4385930

Key:
Assay in all cases: ITC
[1] = target: Bak BH3 BH3 (Homo sapiens), Q16611
[2] = target: Bax BH3 BH3 (Homo sapiens), Q07812
[3] = target: Bid BH3 BH3 (Homo sapiens), P55957

B1: F1L ΔN38ΔC36, P24356 (protein)
chain: YPLPENMVYRFDKSTNILDYLSTERDHVMMAVRYYMSKQRLDDLYRQLPTKTRSYIDIINIYCDKVSNDYNRDMNIMYDMASTKSFTVYDINNEVNTILMDNKGLGVRLATISFITELGRRCMNPVETIKMFTLLSHTICDDYFVDYITDIS
[1]
  Kd: 2640 nM
[2]
  Kd: 920 nM
[3]
  Kd: 3220 nM
